# Patent publication US20080181886A1 (published 2008)
# Ends that are not written are not given here.
# B1: TACI_d1d2 (residues 21-116 of the TACI extracellular domain, C-terminal His-tag) (receptor)
# chain: FPQGLWTGVAMRSCPEEQYWDPLLGTCMSCKTICNHQSQRTCAAFCRSLSCRKEQGKFYDHLLRDCISCASICGQHPKQCAYFCENKLRSPVNLPP
# B2: TACI_d1 (first CRD of TACI, residues 32-67) (receptor)
# chain: RSCPEEQYWDPLLGTCMSCKTICNHQSQRTCAAFCR
# modifications: disulfide (positions not given here); also: more than one disulfide-bonded isomer, pairings not given here
# Key:
# TRX-APRIL [1] = target: T1, TRX-APRIL (mouse, UniProt Q9D777 104-241); test: competitive SPR (BCMA-Fc)
# T1 chain: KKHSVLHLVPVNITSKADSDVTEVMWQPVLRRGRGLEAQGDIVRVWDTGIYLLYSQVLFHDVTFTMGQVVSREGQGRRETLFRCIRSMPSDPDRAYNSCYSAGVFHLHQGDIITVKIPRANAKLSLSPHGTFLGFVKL
# human BAFF [2] = target: T2, human BAFF (UniProt Q9Y275 82-285); test: competitive SPR
# human BAFF [3] = target: T2, human BAFF; test: competitive SPR; remark: listed apart in the source
# TRX-APRIL [4] = target: T1, TRX-APRIL; test: competitive SPR
# human BAFF [5] = target: T2, human BAFF; test: competitive SPR; interaction observed, curve not fitted adequately
# T2 sequence (Q9Y275 82-285): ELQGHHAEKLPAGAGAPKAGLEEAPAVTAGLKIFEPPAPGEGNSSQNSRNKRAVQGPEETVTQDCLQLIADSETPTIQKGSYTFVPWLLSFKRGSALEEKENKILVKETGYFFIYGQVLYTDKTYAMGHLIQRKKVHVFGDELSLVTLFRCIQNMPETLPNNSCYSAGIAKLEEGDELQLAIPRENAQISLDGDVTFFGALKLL
Binder,IC50 (TRX-APRIL [1]),IC50 (human BAFF [2]),IC50 (human BAFF [3]),IC50 (TRX-APRIL [4]),IC50 (human BAFF [5])
B1,11 nM,1.3 nM,–,–,–
"GSPWSLSCRKEQGKFYDHLLRDCISCASICGQHPKQCAYFCENKLR (receptor) [TACI_d2 (second cysteine-rich domain, CRD2, residues 68-109 of human TACI)]",–,1.8 nM,4 nM,3.2 nM,–
B2,2000 nM,–,–,–,> 100 nM
